Experimental findings from US20170306032A1 are described below.

Assay [1] addresses human EphA2 receptor expressed on cells (HEK293-EphA2, CHO-EphA2, PC-3) (human) (UniProt P29317). Put plainly: FACS on CHO cells transfected with human EphA2.
Assay [2] concerns the target human EphA2 recombinant protein (purified human EphA2 extracellular domain) (human) (UniProt P29317). Briefly: BLI, Octet Red, biotinylated huEphA2 on streptavidin sensors, steady state fit (column head prints EC50, title KD). (BLI is a label-free optical method that tracks binding on a fibre tip over time.)
For assay [3], the target named is mouse EphA2 recombinant protein (Fc chimera, R&D Systems, cat#639-A2) (mouse) (UniProt Q03145). Put plainly: BLI, Octet Red, biotinylated mEphA2 on streptavidin sensors, steady state fit (column head prints EC50, title KD).
Sequence of mouse EphA2 recombinant protein (Fc chimera, R&D Systems, cat#639-A2) (mouse) (Q03145 26-535, change not shown): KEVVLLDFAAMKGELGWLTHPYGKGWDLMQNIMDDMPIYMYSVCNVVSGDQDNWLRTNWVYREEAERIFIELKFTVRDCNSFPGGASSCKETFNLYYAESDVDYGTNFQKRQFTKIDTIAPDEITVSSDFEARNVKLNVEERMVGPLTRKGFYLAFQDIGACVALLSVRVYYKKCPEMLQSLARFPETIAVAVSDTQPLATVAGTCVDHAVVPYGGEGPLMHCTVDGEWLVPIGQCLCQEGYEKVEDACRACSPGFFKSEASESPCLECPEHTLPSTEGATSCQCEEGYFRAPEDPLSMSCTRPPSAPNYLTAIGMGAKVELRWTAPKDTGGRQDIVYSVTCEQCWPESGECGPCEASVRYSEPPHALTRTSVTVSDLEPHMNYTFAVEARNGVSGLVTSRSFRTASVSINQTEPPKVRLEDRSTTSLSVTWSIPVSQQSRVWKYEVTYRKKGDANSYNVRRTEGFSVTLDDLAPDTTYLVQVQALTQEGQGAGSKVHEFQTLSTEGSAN
The target of assay [4] is human EphA2 recombinant protein (purified human EphA2 extracellular domain) (human) (UniProt P29317). Put plainly: end-point titration ELISA on huEphA2. On the technique in general: ELISA stands for enzyme-linked immunosorbent assay.
Sequence of human EphA2 recombinant protein (purified human EphA2 extracellular domain) (human) (P29317 24-537): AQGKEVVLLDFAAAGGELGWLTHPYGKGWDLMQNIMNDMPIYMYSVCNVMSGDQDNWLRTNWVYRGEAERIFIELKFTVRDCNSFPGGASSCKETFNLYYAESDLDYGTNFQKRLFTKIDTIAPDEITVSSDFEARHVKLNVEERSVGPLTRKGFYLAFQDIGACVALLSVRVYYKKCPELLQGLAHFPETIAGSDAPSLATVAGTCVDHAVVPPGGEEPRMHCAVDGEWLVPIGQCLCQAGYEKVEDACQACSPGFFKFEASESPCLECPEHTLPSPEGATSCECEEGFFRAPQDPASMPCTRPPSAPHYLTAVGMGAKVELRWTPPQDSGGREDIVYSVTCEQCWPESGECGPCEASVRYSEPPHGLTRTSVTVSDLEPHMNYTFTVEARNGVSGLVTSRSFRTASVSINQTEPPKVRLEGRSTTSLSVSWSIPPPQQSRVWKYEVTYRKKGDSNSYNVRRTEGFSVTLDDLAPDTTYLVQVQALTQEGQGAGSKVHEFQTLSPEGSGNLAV
Assay [5] has the same target. Put plainly: SPR, Biacore 3000, immobilized huEphA2 extracellular domain, KDequilibrium. In general terms: In SPR one partner is held on a chip, and binding of the other changes the refractive index at the surface.
Assay [6] has the same target. Briefly: SPR, Biacore 3000, immobilized huEphA2 extracellular domain, KDkinetic.
The target is the same in assay [7]. Briefly: SPR, Biacore 3000, immobilized huEphA2 extracellular domain.
Assay [8] has as its target mouse EphA2 recombinant protein (Fc chimera, R&D Systems, cat#639-A2) (mouse) (UniProt Q03145). Briefly: end-point titration ELISA on mEphA2.

Sequence of human EphA2 receptor expressed on cells (HEK293-EphA2, CHO-EphA2, PC-3) (human) (P29317 24-976): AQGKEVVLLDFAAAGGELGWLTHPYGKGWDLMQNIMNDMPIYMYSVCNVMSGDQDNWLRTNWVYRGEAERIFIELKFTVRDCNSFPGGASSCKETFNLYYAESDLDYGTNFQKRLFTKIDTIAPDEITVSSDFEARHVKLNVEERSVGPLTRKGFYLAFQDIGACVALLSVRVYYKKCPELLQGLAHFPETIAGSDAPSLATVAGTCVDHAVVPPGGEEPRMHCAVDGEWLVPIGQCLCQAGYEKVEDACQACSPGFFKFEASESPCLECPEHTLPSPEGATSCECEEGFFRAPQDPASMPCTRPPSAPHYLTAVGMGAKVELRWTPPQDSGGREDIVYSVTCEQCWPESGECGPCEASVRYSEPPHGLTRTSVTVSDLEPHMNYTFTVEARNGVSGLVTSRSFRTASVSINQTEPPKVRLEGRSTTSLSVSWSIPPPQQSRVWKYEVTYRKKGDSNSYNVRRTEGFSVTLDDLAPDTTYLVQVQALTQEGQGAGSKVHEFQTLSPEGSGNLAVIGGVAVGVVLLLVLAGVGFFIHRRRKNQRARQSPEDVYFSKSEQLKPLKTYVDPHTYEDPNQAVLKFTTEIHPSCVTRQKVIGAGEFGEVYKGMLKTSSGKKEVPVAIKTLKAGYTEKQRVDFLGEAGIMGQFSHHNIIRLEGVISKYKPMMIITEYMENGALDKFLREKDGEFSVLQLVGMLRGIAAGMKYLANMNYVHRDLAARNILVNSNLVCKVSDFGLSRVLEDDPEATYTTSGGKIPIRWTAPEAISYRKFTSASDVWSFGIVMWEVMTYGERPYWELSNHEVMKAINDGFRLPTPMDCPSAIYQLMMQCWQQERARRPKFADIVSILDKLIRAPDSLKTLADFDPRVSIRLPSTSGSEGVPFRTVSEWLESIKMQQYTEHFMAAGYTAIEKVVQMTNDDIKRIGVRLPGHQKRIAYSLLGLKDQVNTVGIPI

B1: B6 modified CH2 domain (affinity matured, loop 1 PYLHDD, loop 2 of E10) (designed binder)
chain: GPSVFLFPPKPKDTLMISRTPEVTCVVVDPYLHDDEVKFNWYVDGAEVHHAQTKPRQYDPLYGYRVVSVLTVLHQDWLNGKEYKCKVSNKALPAPIEKTISKAK
Take B1: the results for the EC50 in assay [1], in assay [4] and in assay [8] were 151 nM, 6.54 nM and 3.5 nM, respectively. Also, the Kd – broadly, the constant that tells how readily two partners part at equilibrium – was found to be 39 nM in assay [2], 30 nM in assay [3], 56 nM in assay [5] and 69 nM in assay [6]. The koff (in general, the first-order rate constant of dissociation) in assay [7] was determined as 0.0496 s⁻¹. In assay [7], the on-rate (kon) (usually a measure of how fast the partners come together) stood at 716000 M⁻¹ s⁻¹.
